Assay: First-order nonenzymatic deamidation of pentapeptides in Tris buffer
Assay type: physicochemical
Settings: pH 7.4, 37.0° C., 0.15 M Tris HCl; Asn pentapeptides
Summary of the method: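 Pentapeptides containing Asn or Gln in varied flanking sequences incubated at 37° C., pH 7.4, 0.15 M Tris buffer; first-order deamidation rates measured. Some Asn values estimated from remaining data; many Gln values derived from surface fitting rather than measured.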

Substance	First-Order Deamidation Halftimes of GlyXxxAsnYyyGly [days]
GlyLysAsnLysGly (GKNKG; printed: GlyLysAsnLysGly)	53.5
GlyLysAsnMetGly (GKNMG; printed: GlyLysAsnMetGly)	60.9
GlyLysAsnPheGly (GKNFG; printed: GlyLysAsnPheGly)	70.1
GlyLysAsnProGly (GKNPG; printed: GlyLysAsnProGly)	4940
GlyLysAsnSerGly (GKNSG; printed: GlyLysAsnSerGly)	15.6
GlyLysAsnThrGly (GKNTG; printed: GlyLysAsnThrGly)	58.1
GlyLysAsnTrpGly (GKNWG; printed: GlyLysAsnTrpGly)	98.1
GlyLysAsnTyrGly (GKNYG; printed: GlyLysAsnTyrGly)	96.7
GlyLysAsnValGly (GKNVG; printed: GlyLysAsnValGly)	246
GlyMetAsnAlaGly (GMNAG; printed: GlyMetAsnAlaGly)	22.1
GlyMetAsnAmCysGly	33.8
GlyMetAsnArgGly (GMNRG; printed: GlyMetAsnArgGly)	58.8
GlyMetAsnAspGly (GMNDG; printed: GlyMetAsnAspGly)	26.4
GlyMetAsnCysGly (GMNCG; printed: GlyMetAsnCysGly)	49.6
GlyMetAsnGluGly (GMNEG; printed: GlyMetAsnGluGly)	72.4
GlyMetAsnGlyGly (GMNGG; printed: GlyMetAsnGlyGly)	1.04
GlyMetAsnHisGly (GMNHG; printed: GlyMetAsnHisGly)	10.2
GlyMetAsnIleGly (GMNIG; printed: GlyMetAsnIleGly)	275
GlyMetAsnLeuGly (GMNLG; printed: GlyMetAsnLeuGly)	113
GlyMetAsnLysGly (GMNKG; printed: GlyMetAsnLysGly)	60.4
GlyMetAsnMetGly (GMNMG; printed: GlyMetAsnMetGly)	56.9
GlyMetAsnPheGly (GMNFG; printed: GlyMetAsnPheGly)	61.9
GlyMetAsnProGly (GMNPG; printed: GlyMetAsnProGly)	9300
GlyMetAsnSerGly (GMNSG; printed: GlyMetAsnSerGly)	15.2
GlyMetAsnThrGly (GMNTG; printed: GlyMetAsnThrGly)	43.6
GlyMetAsnTrpGly (GMNWG; printed: GlyMetAsnTrpGly)	92.7
GlyMetAsnTyrGly (GMNYG; printed: GlyMetAsnTyrGly)	74.0
GlyMetAsnValGly (GMNVG; printed: GlyMetAsnValGly)	211

Same assay, conditions: pH 7.4, 37.0 ° C., 0.15 M Tris HCl; Gln pentapeptides; 52 values measured, rest derived from surface fitting

Substance	First-Order Deamidation Halftimes of GlyXxxGlnYyyGly [days]
GlyLysGlnAlaGly (GKQAG; printed: GlyLysGlnAlaGly)	4300
GlyLysGlnArgGly (GKQRG; printed: GlyLysGlnArgGly)	2300
GlyLysGlnAspGly (GKQDG; printed: GlyLysGlnAspGly)	5900
GlyLysGlnCysGly (GKQCG; printed: GlyLysGlnCysGly)	1000
GlyLysGlnGluGly (GKQEG; printed: GlyLysGlnGluGly)	5400
GlyLysGlnGlyGly (GKQGG; printed: GlyLysGlnGlyGly)	650
GlyLysGlnHisGly (GKQHG; printed: GlyLysGlnHisGly)	6100
GlyLysGlnIleGly (GKQIG; printed: GlyLysGlnIleGly)	5400
GlyLysGlnLeuGly (GKQLG; printed: GlyLysGlnLeuGly)	5300
GlyLysGlnLysGly (GKQKG; printed: GlyLysGlnLysGly)	4000
GlyLysGlnMetGly (GKQMG; printed: GlyLysGlnMetGly)	4000
GlyLysGlnPheGly (GKQFG; printed: GlyLysGlnPheGly)	7000
GlyLysGlnProGly (GKQPG; printed: GlyLysGlnProGly)	7700
GlyLysGlnSerGly (GKQSG; printed: GlyLysGlnSerGly)	4200
GlyLysGlnThrGly (GKQTG; printed: GlyLysGlnThrGly)	4100
GlyLysGlnTrpGly (GKQWG; printed: GlyLysGlnTrpGly)	10000

Substance	First-Order Deamidation Halftimes of GlyXxxGlnYyyGly [days]
GlyLysGlnTyrGly (GKQYG; printed: GlyLysGlnTyrGly)	8800
GlyLysGlnValGly (GKQVG; printed: GlyLysGlnValGly)	5700
GlyMetGlnAlaGly (GMQAG; printed: GlyMetGlnAlaGly)	4400
GlyMetGlnArgGly (GMQRG; printed: GlyMetGlnArgGly)	5100
GlyMetGlnAspGly (GMQDG; printed: GlyMetGlnAspGly)	6200
GlyMetGlnCysGly (GMQCG; printed: GlyMetGlnCysGly)	900
GlyMetGlnGluGly (GMQEG; printed: GlyMetGlnGluGly)	5800
GlyMetGlnGlyGly (GMQGG; printed: GlyMetGlnGlyGly)	600
GlyMetGlnHisGly (GMQHG; printed: GlyMetGlnHisGly)	4400
GlyMetGlnIleGly (GMQIG; printed: GlyMetGlnIleGly)	5000
GlyMetGlnLeuGly (GMQLG; printed: GlyMetGlnLeuGly)	5000
GlyMetGlnLysGly (GMQKG; printed: GlyMetGlnLysGly)	4600
GlyMetGlnMetGly (GMQMG; printed: GlyMetGlnMetGly)	3500
GlyMetGlnPheGly (GMQFG; printed: GlyMetGlnPheGly)	6600
GlyMetGlnProGly (GMQPG; printed: GlyMetGlnProGly)	7300

Source: US20050118674A1, “Engineering of Controlled Deamidation Rates in Peptides, Proteins, and Similar Structures” (priority 2003, published 2005)
